B1: TRIM25 PRYSPRY (protein)
chain: KVLETFLAKSRPELLEYYIKVILDYNTAHNKVALSECYTVASVAEMPQNYRPHPQRFTYCSQVLGLHCYKKGIHYWEVELQKNNFCGVGICYGSMNRQGPESRLGRNSASWCVEWFNTKISAWHNNVEKTLPSTKATRVGVLLNCDHGFVIFFAVADKVHLMYKFRVDFTEALYPAFWVFSAGATLSICSPK
modifications: TRIM25 covalently pre-labelled with heterobifunctional compound HB2
B2: TRIM25 PRYSPRY (protein)
chain: KVLETFLAKSRPELLEYYIKVILDYNTAHNKVALSECYTVASVAEMPQNYRPHPQRFTYCSQVLGLHCYKKGIHYWEVELQKNNFCGVGICYGSMNRQGPESRLGRNSASWCVEWFNTKISAWHNNVEKTLPSTKATRVGVLLNCDHGFVIFFAVADKVHLMYKFRVDFTEALYPAFWVFSAGATLSICSPK
modifications: TRIM25 covalently pre-labelled with heterobifunctional compound HB1
B3: TRIM25 PRYSPRY (protein)
chain: KVLETFLAKSRPELLEYYIKVILDYNTAHNKVALSECYTVASVAEMPQNYRPHPQRFTYCSQVLGLHCYKKGIHYWEVELQKNNFCGVGICYGSMNRQGPESRLGRNSASWCVEWFNTKISAWHNNVEKTLPSTKATRVGVLLNCDHGFVIFFAVADKVHLMYKFRVDFTEALYPAFWVFSAGATLSICSPK
modifications: TRIM25 covalently pre-labelled with heterobifunctional compound HB3

This assay has as its target BRD4 BD2 (Homo sapiens, UniProt O60885). Put plainly: SPR. On the technique in general: Surface plasmon resonance follows binding to a sensor surface in real time, without labels.
The Kd is the constant that tells how readily two partners part at equilibrium. A higher Kd goes with a looser complex. Molecule B1 came in with a Kd of 20 nM. The molecule B2 displayed a Kd of 15 nM. Under B3 stands 22.5 nM.
